Reference: patent US20210196796A1 (SYNTHEKINE, published 2021)

T1: orthogonal hCD122 receptor (hoRb), hCD122 with H133D and Y134F (human, UniProt P14784 27-550)
T1 sequence: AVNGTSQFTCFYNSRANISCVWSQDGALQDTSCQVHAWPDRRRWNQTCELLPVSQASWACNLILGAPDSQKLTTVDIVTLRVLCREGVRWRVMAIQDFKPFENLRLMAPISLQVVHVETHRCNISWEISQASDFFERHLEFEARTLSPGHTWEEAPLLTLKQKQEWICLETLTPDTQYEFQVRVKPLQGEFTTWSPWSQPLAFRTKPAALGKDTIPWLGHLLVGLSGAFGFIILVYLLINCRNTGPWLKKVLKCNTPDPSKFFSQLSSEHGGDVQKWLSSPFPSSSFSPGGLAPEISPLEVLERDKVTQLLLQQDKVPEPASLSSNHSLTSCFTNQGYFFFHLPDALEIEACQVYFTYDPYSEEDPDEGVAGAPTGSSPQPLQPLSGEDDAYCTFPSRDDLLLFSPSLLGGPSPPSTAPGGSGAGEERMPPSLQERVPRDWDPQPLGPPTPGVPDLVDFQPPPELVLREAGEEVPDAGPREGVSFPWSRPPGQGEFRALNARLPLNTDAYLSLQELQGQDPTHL


What was measured:
[1] = target: T1, orthogonal hCD122 receptor (hoRb), …; assay: cell-based or functional assay
[2] = target: T1, orthogonal hCD122 receptor (hoRb), …; assay: cell-based or functional assay; remark: listed apart in the source

Binder | NKL Ortho Proliferation Signal 1:2 [1] | NKL Ortho Proliferation Signal 1:10 [1] | NKL Ortho Proliferation Signal 1:50 [1] | Relative Proliferation Fold Change NKL 1:2 [1] | Relative Proliferation Fold Change NKL 1:10 [1] | Relative Proliferation Fold Change NKL 1:50 [1] | 3F8 Ortho Proliferation Signal 1:2 [2] | 3F8 Ortho Proliferation Signal 1:10 [2] | 3F8 Ortho Proliferation Signal 1:50 [2] | Relative Proliferation Fold Change 3F8 1:2 [2] | Relative Proliferation Fold Change 3F8 1:10 [2] | Relative Proliferation Fold Change 3F8 1:50 [2]
C125A, SQVLKA (ligand) APTSSSTKKTQLQLSQLLVLLKAILNGINNYKNPKLTRMLTFKFYMPKKATELKHLQCLEEELKPLEEVLNLAQSKNFHLRPRDLISNINVIVLELKGSETTFMCEYADETATIVEFLNRWITFAQSIISTLT | 42000 | 50400 | 22800 | 3.95 fold | 3.6 fold | 1.95 fold | 43700 cts/min | 44600 cts/min | 24800 cts/min | 0.72 fold | 4.37 fold | 5.3 fold
C125S, SQVLKA (ligand) APTSSSTKKTQLQLSQLLVLLKAILNGINNYKNPKLTRMLTFKFYMPKKATELKHLQCLEEELKPLEEVLNLAQSKNFHLRPRDLISNINVIVLELKGSETTFMCEYADETATIVEFLNRWITFSQSIISTLT | 48200 | 59500 | 27800 | 4.29 fold | 4.53 fold | 2.26 fold | 36200 cts/min | 45000 cts/min | 26100 cts/min | 140 fold | 66.6 fold | 26.9 fold
Q126C, SQVLKA (ligand) APTSSSTKKTQLQLSQLLVLLKAILNGINNYKNPKLTRMLTFKFYMPKKATELKHLQCLEEELKPLEEVLNLAQSKNFHLRPRDLISNINVIVLELKGSETTFMCEYADETATIVEFLNRWITFCCSIISTLT | 6560 | 8210 | 7200 | 0.44 fold | 0.53 fold | 0.49 fold | 452 cts/min | 574 cts/min | 748 cts/min | 2.28 fold | 0.68 fold | 1.4 fold
L14W, SQVLKA (ligand) APTSSSTKKTQLQWSQLLVLLKAILNGINNYKNPKLTRMLTFKFYMPKKATELKHLQCLEEELKPLEEVLNLAQSKNFHLRPRDLISNINVIVLELKGSETTFMCEYADETATIVEFLNRWITFCQSIISTLT | 50300 | 45100 | 20900 | 4.04 fold | 2.83 fold | 1.39 fold | 35300 cts/min | 36000 cts/min | 13600 cts/min | 66.2 fold | 31.8 fold | 16.5 fold

Other lines, results leading:

NKL Ortho Proliferation Signal 1:2 [1] | NKL Ortho Proliferation Signal 1:10 [1] | NKL Ortho Proliferation Signal 1:50 [1] | Relative Proliferation Fold Change NKL 1:2 [1] | Relative Proliferation Fold Change NKL 1:10 [1] | Relative Proliferation Fold Change NKL 1:50 [1] | 3F8 Ortho Proliferation Signal 1:2 [2] | 3F8 Ortho Proliferation Signal 1:10 [2] | 3F8 Ortho Proliferation Signal 1:50 [2] | Relative Proliferation Fold Change 3F8 1:2 [2] | Relative Proliferation Fold Change 3F8 1:10 [2] | Relative Proliferation Fold Change 3F8 1:50 [2] | Binder
43600 | 29000 | 15800 | 3.64 fold | 1.92 fold | 1.09 fold | 36500 cts/min | 38600 cts/min | 18700 cts/min | 181 fold | 54.1 fold | 14.5 fold | Q126H, SQVLKA (ligand) APTSSSTKKTQLQLSQLLVLLKAILNGINNYKNPKLTRMLTFKFYMPKKATELKHLQCLEEELKPLEEVLNLAQSKNFHLRPRDLISNINVIVLELKGSETTFMCEYADETATIVEFLNRWITFCHSIISTLT
4640 | 7560 | 6380 | 0.39 fold | 0.49 fold | 0.46 fold | 294 cts/min | 368 cts/min | 544 cts/min | 0.63 fold | 0.4 fold | 0.61 fold | Q126D, SQVLKA (ligand) APTSSSTKKTQLQLSQLLVLLKAILNGINNYKNPKLTRMLTFKFYMPKKATELKHLQCLEEELKPLEEVLNLAQSKNFHLRPRDLISNINVIVLELKGSETTFMCEYADETATIVEFLNRWITFCDSIISTLT
19800 | 18700 | 9760 | 2 fold | 1.29 fold | 0.74 fold | 33100 cts/min | 33200 cts/min | 17100 cts/min | 154 fold | 55.6 fold | 31.8 fold | Q126M, SQVLKA (ligand) APTSSSTKKTQLQLSQLLVLLKAILNGINNYKNPKLTRMLTFKFYMPKKATELKHLQCLEEELKPLEEVLNLAQSKNFHLRPRDLISNINVIVLELKGSETTFMCEYADETATIVEFLNRWITFCMSIISTLT
6510 | 7930 | 6980 | 0.54 fold | 0.56 fold | 0.53 fold | 2720 cts/min | 2490 cts/min | 964 cts/min | 9.18 fold | 7.29 fold | 1.51 fold | Q126K, SQVLKA (ligand) APTSSSTKKTQLQLSQLLVLLKAILNGINNYKNPKLTRMLTFKFYMPKKATELKHLQCLEEELKPLEEVLNLAQSKNFHLRPRDLISNINVIVLELKGSETTFMCEYADETATIVEFLNRWITFCKSIISTLT
10600 | 8600 | 6800 | 1.01 fold | 0.68 fold | 0.55 fold | 21000 cts/min | 14600 cts/min | 2660 cts/min | 129 fold | 33.6 fold | 6.4 fold | Q126E, SQVLKA (ligand) APTSSSTKKTQLQLSQLLVLLKAILNGINNYKNPKLTRMLTFKFYMPKKATELKHLQCLEEELKPLEEVLNLAQSKNFHLRPRDLISNINVIVLELKGSETTFMCEYADETATIVEFLNRWITFCESIISTLT
5740 | 7220 | 6050 | 0.45 fold | 0.49 fold | 0.45 fold | 1540 cts/min | 1100 cts/min | 838 cts/min | 7.05 fold | 2.14 fold | 1.14 fold | Q126G, SQVLKA (ligand) APTSSSTKKTQLQLSQLLVLLKAILNGINNYKNPKLTRMLTFKFYMPKKATELKHLQCLEEELKPLEEVLNLAQSKNFHLRPRDLISNINVIVLELKGSETTFMCEYADETATIVEFLNRWITFCGSIISTLT
